In one assay the target is HLA-B7 (human). Description: assembly assay (HLA-B7 stabilisation).
The target of the next assay is HLA-B35 (human). The assay is described as follows: assembly assay, T2-B35 cell lysate, W6/32 IP, IEF gel.

In patent EP2857035B1 one finds C50 data, which are given here for three molecules.

B1: C7 (peptide)
peptide: RPPIFIRRL
modifications: not checked
The molecule B1 gave a C50 with HLA-B7 (human) of 0.5 µM.

B2: C24, EBNA3A458-466 (peptide)
peptide: YPLHEQHQM
modifications: not checked
Turning to B2, the C50 with HLA-B35 (human) stood at 0.8 µM.

B3: C6 (peptide)
peptide: QPRAPIRPI
modifications: not checked
Regarding B3, the C50 in the assay with HLA-B7 (human) is 0.1 µM.
